In patent EP4725966A1 (SHANGHAI RUOTUO BIOSCIENCES CO., LTD., dated 2024):
Like-named read-outs stand apart in the source and are kept apart here.

T1: Human HER4-ECD-His (human, UniProt Q15303 26-651)
T1 construct: extracellular domain; not shown: His tag
T1 sequence (looked up): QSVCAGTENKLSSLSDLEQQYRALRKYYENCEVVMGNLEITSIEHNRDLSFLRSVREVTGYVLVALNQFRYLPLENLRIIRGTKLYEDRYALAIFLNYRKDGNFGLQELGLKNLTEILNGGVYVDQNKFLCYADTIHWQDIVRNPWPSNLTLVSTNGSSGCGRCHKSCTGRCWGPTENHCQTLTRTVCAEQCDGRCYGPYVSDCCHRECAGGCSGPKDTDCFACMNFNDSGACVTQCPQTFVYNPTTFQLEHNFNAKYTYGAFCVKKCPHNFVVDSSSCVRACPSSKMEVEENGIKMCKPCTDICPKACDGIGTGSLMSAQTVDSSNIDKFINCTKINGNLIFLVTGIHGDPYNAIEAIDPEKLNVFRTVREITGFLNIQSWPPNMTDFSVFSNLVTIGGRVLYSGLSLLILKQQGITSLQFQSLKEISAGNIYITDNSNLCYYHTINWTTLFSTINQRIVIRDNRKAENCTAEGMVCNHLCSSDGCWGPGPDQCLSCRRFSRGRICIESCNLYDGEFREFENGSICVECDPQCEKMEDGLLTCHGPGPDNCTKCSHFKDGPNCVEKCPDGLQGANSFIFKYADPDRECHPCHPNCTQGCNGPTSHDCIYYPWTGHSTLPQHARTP


Experiments:
Human HER4-ECD-His = target: T1, Human HER4-ECD-His; test: ELISA on coated Human HER4-ECD-His, antibody 25 nM to 0.011 nM
Human EGFR-ECD-His = target: T2, Human EGFR-ECD-His (human, UniProt P00533 25-645); test: ELISA on coated Human EGFR-ECD-His, antibody 25 nM to 0.011 nM
T2 construct: extracellular domain; not shown: His tag

Human HER2-ECD-His = target: T3, Human HER2-ECD-His (human, UniProt P04626 23-652); test: ELISA on coated Human HER2-ECD-His, antibody 25 nM to 0.011 nM
T3 construct: extracellular domain; not shown: His tag

human HER3-ECD-His [1] = target: T4, human HER3-ECD-His (human, UniProt P21860 20-643); test: Octet (BLI)
T4 construct: extracellular domain; Fusion protein of the extracellular domain of human HER3 and a His tag; also called hHER3-ECD-His; human HER3 extracellular domain protein; not shown: His tag

cynomolgus HER3-ECD-His [2] = target: T5, cynomolgus HER3-ECD-His (cynomolgus monkey, UniProt G7PIG5 20-643); test: Octet (BLI)
T5 construct: extracellular domain; Bought protein (Sino Biological); also called Cyno HER3-ECD-His; Cyno HER3; not shown: His tag
T5 sequence (G7PIG5 entry or part of it): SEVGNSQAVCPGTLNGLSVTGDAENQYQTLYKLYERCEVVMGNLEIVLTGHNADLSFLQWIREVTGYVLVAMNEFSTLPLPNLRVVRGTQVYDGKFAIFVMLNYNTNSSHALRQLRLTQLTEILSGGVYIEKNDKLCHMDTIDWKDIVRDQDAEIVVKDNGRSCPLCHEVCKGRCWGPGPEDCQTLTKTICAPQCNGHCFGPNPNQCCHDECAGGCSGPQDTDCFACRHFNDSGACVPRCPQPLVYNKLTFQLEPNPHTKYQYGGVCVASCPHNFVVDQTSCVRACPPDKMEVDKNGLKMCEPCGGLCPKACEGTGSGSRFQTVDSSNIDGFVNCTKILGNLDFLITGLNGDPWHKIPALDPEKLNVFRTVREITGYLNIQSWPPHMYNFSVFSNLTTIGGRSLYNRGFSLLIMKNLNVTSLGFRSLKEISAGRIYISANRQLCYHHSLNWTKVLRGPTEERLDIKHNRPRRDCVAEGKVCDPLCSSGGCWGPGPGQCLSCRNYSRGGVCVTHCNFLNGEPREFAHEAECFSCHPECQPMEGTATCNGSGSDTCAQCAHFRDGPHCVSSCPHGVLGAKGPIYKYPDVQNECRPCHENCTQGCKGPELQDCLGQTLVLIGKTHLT

human HER3-ECD-His [3] = target: T4, human HER3-ECD-His; test: Octet (BLI); remark: listed apart in the source
cynomolgus HER3-ECD-His [4] = target: T5, cynomolgus HER3-ECD-His; test: Octet (BLI); remark: listed apart in the source
human HER3 on cells = target: T6, human HER3 on cells (human, UniProt P21860 20-1342); test: fluorescence imaging of HER3-overexpressing A375 cells, 100 nM, 0 hour
T6 construct: whole, on cells; also called Human HER3-CHO; CHO cells overexpressing human HER3

human HER3-ECD-His [5] = target: T4, human HER3-ECD-His; test: Octet (BLI); remark: listed apart in the source
cynomolgus HER3-ECD-His [6] = target: T5, cynomolgus HER3-ECD-His; test: Octet (BLI); remark: listed apart in the source
[7] = target: T7, cynomolgus HER3 on CHO cells (cynomolgus monkey, UniProt G7PIG5 20-1342); test: FACS on CHO cells overexpressing cynomolgus HER3
T7 construct: whole, on cells; also called CHO cells overexpressing cynomolgus HER3; CHO cells overexpressing cynomolgus monkey HER3
T7 sequence (G7PIG5 entry or part of it): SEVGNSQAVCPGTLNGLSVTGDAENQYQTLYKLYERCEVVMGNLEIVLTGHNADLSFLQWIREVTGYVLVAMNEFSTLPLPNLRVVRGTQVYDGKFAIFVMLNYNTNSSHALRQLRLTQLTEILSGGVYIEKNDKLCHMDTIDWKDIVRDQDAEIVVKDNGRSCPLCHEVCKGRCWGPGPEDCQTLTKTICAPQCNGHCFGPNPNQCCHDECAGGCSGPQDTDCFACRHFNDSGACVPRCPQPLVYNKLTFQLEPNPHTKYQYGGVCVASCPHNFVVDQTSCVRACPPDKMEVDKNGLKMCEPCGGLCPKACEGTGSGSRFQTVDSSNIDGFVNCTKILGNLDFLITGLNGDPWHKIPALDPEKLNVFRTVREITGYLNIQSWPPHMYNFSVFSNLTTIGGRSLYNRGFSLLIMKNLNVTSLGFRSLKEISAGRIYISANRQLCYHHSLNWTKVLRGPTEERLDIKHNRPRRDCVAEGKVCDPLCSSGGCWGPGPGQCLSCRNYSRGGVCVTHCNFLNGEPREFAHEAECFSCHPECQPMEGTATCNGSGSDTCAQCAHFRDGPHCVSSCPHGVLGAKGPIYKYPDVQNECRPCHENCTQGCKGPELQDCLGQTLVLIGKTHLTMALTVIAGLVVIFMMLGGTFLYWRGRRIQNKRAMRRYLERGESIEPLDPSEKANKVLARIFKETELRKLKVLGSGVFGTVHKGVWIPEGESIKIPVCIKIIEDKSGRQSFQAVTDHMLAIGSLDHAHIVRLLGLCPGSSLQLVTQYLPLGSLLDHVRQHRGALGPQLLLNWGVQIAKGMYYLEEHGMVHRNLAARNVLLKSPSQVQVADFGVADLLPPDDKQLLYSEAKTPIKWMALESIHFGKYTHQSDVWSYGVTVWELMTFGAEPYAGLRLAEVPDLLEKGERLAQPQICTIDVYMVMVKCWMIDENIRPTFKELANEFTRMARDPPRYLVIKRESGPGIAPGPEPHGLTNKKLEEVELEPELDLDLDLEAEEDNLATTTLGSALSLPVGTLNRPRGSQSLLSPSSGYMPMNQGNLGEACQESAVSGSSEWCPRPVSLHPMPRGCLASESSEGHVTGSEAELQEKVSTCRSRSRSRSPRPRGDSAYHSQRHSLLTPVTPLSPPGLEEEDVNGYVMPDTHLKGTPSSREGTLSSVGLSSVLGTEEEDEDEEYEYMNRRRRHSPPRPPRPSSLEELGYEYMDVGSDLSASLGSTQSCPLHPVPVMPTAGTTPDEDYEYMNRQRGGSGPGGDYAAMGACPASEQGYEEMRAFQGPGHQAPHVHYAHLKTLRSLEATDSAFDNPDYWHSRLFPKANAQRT

Row | Binder | binding result (Human HER4-ECD-His) | binding result (Human EGFR-ECD-His) | binding result (Human HER2-ECD-His) | Kd (human HER3-ECD-His [1]) | koff (human HER3-ECD-His [1]) | kon (human HER3-ECD-His [1]) | Kd (cynomolgus HER3-ECD-His [2]) | koff (cynomolgus HER3-ECD-His [2]) | kon (cynomolgus HER3-ECD-His [2]) | KD fold lower than patritumab (human HER3-ECD-His [3]) | KD fold lower than patritumab (cynomolgus HER3-ECD-His [4]) | binding result (human HER3 on cells) | Kd (human HER3-ECD-His [5]) | koff (human HER3-ECD-His [5]) | kon (human HER3-ECD-His [5]) | Kd (cynomolgus HER3-ECD-His [6]) | koff (cynomolgus HER3-ECD-His [6]) | kon (cynomolgus HER3-ECD-His [6]) | EC50 fold against patritumab [7]
1 | hHE4-G1W (antibody, human IgG1, V domains shown, Humanized from cHE4-G1W; also called humanized HE4 antibody; not shown: human IgG1 heavy chain constant region; human light chain constant region) VH: QVQLVESGGGLVKPGGSLRLSCAASGFTFSSYVMSWVRQAPGKGLEWVATISDGDSSTYYADSVKGRFTISRDNAKNSLYLQMNSLRAEDTAVYYCARDKGHGYDEGAFVYWGQGTLVTVSS VL: DIQMTQSPSSLSASVGDRVTITCRASENIYSYLAWYQQKPGKAPKLLIYNAKTLAEGVPSRFSGSGSGTDFTLTISSLQPEDFATYYCQNHYGTPYTFGQGTKLEIKR | no binding (tested: 25 nM) | no binding (tested: 25 nM) | no binding (tested: 25 nM) | 0.199 nM | 9.84e-05 s⁻¹ | 495000 M⁻¹ s⁻¹ | 0.208 nM | 9.11e-05 s⁻¹ | 439000 M⁻¹ s⁻¹ | ~10 fold | ~10 fold | – | – | – | – | – | – | – | –
2 | hHE4-G1W-DXd (antibody, V domains shown, maleimide-GGFG-DXd conjugated to cysteines of reduced interchain disulfide bonds; antibody-to-DXd ratio 1:8, not shown: human IgG1 heavy chain constant region; human light chain constant region) VH: QVQLVESGGGLVKPGGSLRLSCAASGFTFSSYVMSWVRQAPGKGLEWVATISDGDSSTYYADSVKGRFTISRDNAKNSLYLQMNSLRAEDTAVYYCARDKGHGYDEGAFVYWGQGTLVTVSS VL: DIQMTQSPSSLSASVGDRVTITCRASENIYSYLAWYQQKPGKAPKLLIYNAKTLAEGVPSRFSGSGSGTDFTLTISSLQPEDFATYYCQNHYGTPYTFGQGTKLEIKR | – | – | – | – | – | – | – | – | – | – | – | binds | – | – | – | – | – | – | –
3 | cHE6-G1W (antibody, human IgG1, V domains shown, also called chimeric HE6 antibody; not shown: human IgG1 heavy chain constant region, GenBank AXN93653.1; human kappa light chain constant region, GenBank AWK57456.1) VH: EVQLQQSGPDLVKPGTSVKMSCKASGYTFTDYYMHWVRQSHGKSLEWIGYINPNNGDAIYNQKFKGKATLTVNKSSTTAYMALRSLTSEDSAVYFCATYDYGGDFYFDVWGTGTTVTVSS VL: DIELTQSPALMSASPGEKVTMTCSASSSVSYMYWYQQKPRSSPKPWIYLTSNLASGVPARFSGSGSGTSYSLTISSMEAEDAATYYCQQWSRNPLTFGAGTKLELKR | – | – | – | – | – | – | – | – | – | – | – | – | 0.00114 nM | 5.11e-07 s⁻¹ | 450000 M⁻¹ s⁻¹ | 1.25 nM | 0.000706 s⁻¹ | 565000 M⁻¹ s⁻¹ | –
4 | cHE7-G1W (antibody, human IgG1, V domains shown, also called chimeric HE7 antibody; not shown: human IgG1 heavy chain constant region, GenBank AXN93653.1; human kappa light chain constant region, GenBank AWK57456.1) VH: EVQLQQSGPDLVKPGTSVKMSCKASGYTFTDYYMHWVRQSHGKSLEWIGYINPNNGDAIYNQKFKGKATLTVDKSSTTAYMALRSLTSEDSAVYFCATYDYGGDFYFDVWGTGTTVTVSS VL: DIELTQSPALMSASPGEKVTMTCSASSSVSYMYWYQQKPRSSPKPWIYLTSNLASGVPARFSGSGSGTSYSLTISSMEAEDAATYYCQQWSRNPLTFGAGTKLELKR | – | – | – | – | – | – | – | – | – | – | – | – | 0.00131 nM | 5.57e-07 s⁻¹ | 425000 M⁻¹ s⁻¹ | 1.36 nM | 0.000912 s⁻¹ | 672000 M⁻¹ s⁻¹ | –
5 | cHE1-G1W (antibody, human IgG1, V domains shown, also called chimeric HE1 antibody; not shown: human IgG1 heavy chain constant region, GenBank AXN93653.1; human kappa light chain constant region, GenBank AWK57456.1) VH: EVKLQESGPGLVKPSQSLSLTCSVTGYSITSGYYWNWIRQFPGNKLEWMGYISYDGSNNYNPSLKNRISITRDTSKNQFFLNLNSVTTEDTATYYCARVDWDGDAMDYWGQGTSVTVSS VL: DIVLTQSPASLAVSLGQRATISCRASESVDNYGIRLMHWYQQKSGQPPKLLIHRASNLESGIPARFSGSGSRTDFTLTINPVETDDVATYYCQQSNKDPFTFGSGTKLEIKR | – | – | – | – | – | – | – | – | – | – | – | – | 4.88 nM | 0.00356 s⁻¹ | 728000 M⁻¹ s⁻¹ | 4.01 nM | 0.0017 s⁻¹ | 423000 M⁻¹ s⁻¹ | –
6 | cHE5-G1W (antibody, human IgG1, V domains shown, also called chimeric HE5 antibody; not shown: human IgG1 heavy chain constant region, GenBank AXN93653.1; human kappa light chain constant region, GenBank AWK57456.1) VH: EVQLQESGPGLVKPSQSLSLTCSVTGYSITSGYYWNWIRQFPGNKLEWMGYISYDGSNNYNPSLKNRISITRDTSKNQFFLKLNSVTTEDTATYYCASYDYDGDWFAYWGQGTLVTVSA VL: DIVLTQSPASLAVSLGQRATISCRASESVDHYGSSFMHWYQQKPGQPPKLLIYRASNPESGIPARFSGSGSRTDFTLTINPVETDDVATYYCQQSNKDPPTFGGGTKLEIKR | – | – | – | – | – | – | – | – | – | – | – | – | 3.56 nM | 0.00253 s⁻¹ | 710000 M⁻¹ s⁻¹ | 3.58 nM | 0.00154 s⁻¹ | 429000 M⁻¹ s⁻¹ | –
7 | cHE2-G1W (antibody, human IgG1, V domains shown, also called chimeric HE2 antibody; not shown: human IgG1 heavy chain constant region, GenBank AXN93653.1; human kappa light chain constant region, GenBank AWK57456.1) VH: EVKLQESGPGLVKPSQSLSLTCSVTGYSITSGYYWNWIRQFPGNKLEWMGYISYDGSNNYNPSLKNRISITRDTSKNQFFLKLNSVTTEDTATYYCARMDWDGDAMDYWGQGTSVTVSS VL: DIVLTQSPASLAVSLGQRATISCRASESVDNYGISLMHWYQQKPGQPPKLLIYRASNLESGIPARFSGSGSRTDFTLTINPVETDDVATYYCQQSNKDPPTFGAGTKLELKR | – | – | – | – | – | – | – | – | – | – | – | – | 3.57 nM | 0.00308 s⁻¹ | 861000 M⁻¹ s⁻¹ | 3.25 nM | 0.00165 s⁻¹ | 507000 M⁻¹ s⁻¹ | –
8 | patritumab (antibody, V domains shown) VH: QVQLQQWGAGLLKPSETLSLTCAVYGGSFSGYYWSWIRQPPGKGLEWIGEINHSGSTNYNPSLKSRVTISVETSKNQFSLKLSSVTAADTAVYYCARDKWTWYFDLWGRGTLVTVSS VL: not shown | – | – | – | 1.33 nM | 0.000296 s⁻¹ | 222000 M⁻¹ s⁻¹ | 1.92 nM | 0.000371 s⁻¹ | 194000 M⁻¹ s⁻¹ | – | – | – | 0.869 nM | 0.000224 s⁻¹ | 258000 M⁻¹ s⁻¹ | 2.34 nM | 0.000306 s⁻¹ | 131000 M⁻¹ s⁻¹ | –
9 | cHE4-G1W (antibody, human IgG1, V domains shown, also called chimeric HE4 antibody; cHE4-G1W4; not shown: human IgG1 heavy chain constant region, GenBank AXN93653.1; human kappa light chain constant region, GenBank AWK57456.1) VH: EVQLVESGGGLVKPGGSLKLSCAASGFTFSSYVMSWVRQTPEKRLEWVATISDGDSSTYYPDNVKGRFTISRDNAKNNLFLQMSHLKSEDTAMYFCARDKGHGYDEGAFVYWGQGTLVTVSA VL: DIQMTQSPASLSASVEETVTITCRASENIYSYLAWYQQKQGKSPQLLVYNAKTLAEGVPSRFSGSGSGTEFSLKINSLQPEDFGSYYCQNHYGTPYTFGGGTKLEIKQ | – | – | – | 0.233 nM | 0.000112 s⁻¹ | 482000 M⁻¹ s⁻¹ | 0.227 nM | 9.63e-05 s⁻¹ | 425000 M⁻¹ s⁻¹ | – | – | – | 0.409 nM | 0.000234 s⁻¹ | 573000 M⁻¹ s⁻¹ | 0.31 nM | 0.000116 s⁻¹ | 374000 M⁻¹ s⁻¹ | 2 fold
